{"source": "patent US10759863B2", "about": "“Modulation of γδ T cells” (Sanford Burnham Prebys Medical Discovery Institute, priority 2013, dated 2020)", "molecules": {"B1": {"name": "IL-7: cytokine IL-7 (R&D Systems), added at 10 ng/ml (protein, UniProt P13232 26-177, looked up)", "Interleukin-7": "DCDIEGKDGKQYESVLMVSIDQLLDSMKEIGSNCLNNEFNFFKRHICDANKEGMFLFRAARKLRQFLKMNSTGDFDLHLLKVSEGTTILLNCTGQVKGRKPAALGEAQPTKSLEENKSLKEQKKLNDLCFLKRLLQEIKTCWNKILMGTKEH"}, "B2": {"name": "IL-23: cytokine, potent γδT cell activator (protein, UniProt Q9NPF7 20-189; P29460 23-328, looked up)", "Interleukin-23 subunit alpha": "RAVPGGSSPAWTQCQQLSQKLCTLAWSAHPLVGHMDLREEGDEETTNDVPHIQCGDGCDPQGLRDNSQFCLQRIHQGLIFYEKLLGSDIFTGEPSLLPDSPVGQLHASLLGLSQLLQPEGHHWETQQIPSLSPSQPWQRLLLRFKILRSLQAFVAVAARVFAHGAATLSP", "Interleukin-12 subunit beta": "IWELKKDVYVVELDWYPDAPGEMVVLTCDTPEEDGITWTLDQSSEVLGSGKTLTIQVKEFGDAGQYTCHKGGEVLSHSLLLLHKKEDGIWSTDILKDQKEPKNKTFLRCEAKNYSGRFTCWWLTTISTDLTFSVKSSRGSSDPQGVTCGAATLSAERVRGDNKEYEYSVECQEDSACPAAEESLPIEVMVDAVHKLKYENYTSSFFIRDIIKPDPPKNLQLKPLKNSRQVEVSWEYPDTWSTPHSYFSLTFCVQVQGKSKREKKDRVFTDKTSATVICRKNASISVRAQDRYYSSSWSEWASVPCS"}}, "key": {"RORγt": {"test_system": "RORγt", "assay": "Digoxin treatment of RORγt-expressing Jurkat cells, BTLA expression", "format": "cell-based", "conditions": "digoxin vs DMSO, 24-48 hrs, FIG. 11B", "protocol": "(§1) Surface staining was performed on ice for 20-30 min. Intracellular staining was performed using the BD Cytofix/Cytoperm™ Kit according the manufacturer's instructions (BD Biosciences). Stained cells were acquired using a BD LSRFortessa™ equipped with 4 lasers (blue at 488 nm, yellow-green at 561 nm, red at 640 nm, violet at 405 nm). Antibodies in SI.\nFor qRT-PCR analysis, total RNA was prepared from FACS sorted populations using the Qiagen RNeasy Mini kit according to the manufacturer's instructions (Qiagen, Valencia, Calif.). RNA was reverse transcribed into cDNA using the iScript™ cDNA synthesis kit (Bio-Rad Laboratories, Hercules, Calif.) according to the manufacturer's instructions. Target genes were detected using intron-spanning primers (Invitrogen) and relative expression was measured using Power® SYBR Master mix (Life Technologies, Grand Island, N.Y.). Reactions were carried out in clear 384 plates using an ABI® 7900 Real-Time PCR System (Life Technologies). We calculated relative expression as follows: 2^−Dct, where Ct=cycle number, DCt=Ct (target gene)−Ct (house-keeping gene). A value of 1 means equal expression of target and house-keeping gene (L32). Oligo sequences (5′-3′):\nJurkat cells were cultured at 10^5/100 μl in U-bottom wells for 24-48 hrs with either DMSO or the indicated concentrations of digoxin (Sigma-Aldrich). […]"}, "[1]": {"test_system": "BTLA expression in γδT cells and ILCs", "assay": "Cytokine-induced BTLA expression in cultured iLN γδT cells and PP ILCs", "format": "cell-based, mice", "conditions": "for BTLA induction in RORγt+ γδT cells after culture with activating cytokines: iLN lymphocytes of Rorc(t)gfp/+ mice enriched for CD27− γδT cells, FIG. 17A", "protocol": "as §1\n(§2) For IL-7 induced expansion iLN lymphocytes were cultured in RF10 media (RPMI+10% FBS, p/s, L-Glutamine) at 10^7/ml in 12-well plates for four days. For IL-7 induced BTLA expression iLN or PP lymphocytes were enriched for ILCs and CD27^− γδT cells and cultured in RF10 media in 24-well plates containing feeder adherent cells for two days. Following enrichment, cells from 3 animals were cultured in 1 ml in a single well. IL-7 (R&D Systems, Minneapolis, Minn.) was added at 10 ng/ml. For IL-17 and TNF production whole lymph node cells were cultured with or without 10 ng/ml IL-7 for 18 hours and then re-stimulated with PMA (50 ng/ml), ionomycin (750 ng/ml) and Golgi Stop™ (BD Biosciences) for 3.5 hours. TH17 differentiation was performed by isolating CD4^+ T cells from spleens and culturing in anti-CD3 (5 μg/ml) coated 24-well plates at 1.35×10^6/ml with anti-CD28 (2 μg/ml), IL-6 (20 ng/ml) and TGFβ1 (2 ng/ml). At day 5, cells were washed and re-stimulated with PMA+ionomycin and Golgi Stop™ (BD Biosciences) for 3.5 hours. For induction of human IL-22, tonsil lymphocytes were cultured in RF10 media at 1.5×10^6/ml in 24-well plates for 6 hours in the presence of 40 ng/ml IL-23 (eBiosciences) and 10 ng/ml IL-1β (R&D Systems). Golgi Stop™ (BD Biosciences) was added during the final 3 hours.\nJurkat cells were cultured at 10^5/100 μl in U-bottom wells for 24-48 hrs with either DMSO or the indicated concentrations of digoxin (Sigma-Aldrich). To test the effect of STAT5 in IL-7-induced BTLA expression, CD27^− gd T cells were enriched from lymph nodes of Rorc(t)^gfp/+ mice and cultured for two days in 24-well plates containing feeder adherent cells with no stimulus, or with IL-7 in the presence or absence of STAT inhibitor (EMD Millipore, Billerica, Mass.) at the indicated concentrations."}, "γδT cells [2]": {"test_system": "γδT cells", "assay": "IL-7 induced expansion of iLN lymphocytes cultured ex vivo", "format": "cell-based, mice", "conditions": "IL-7 10 ng/ml, four days, vs untreated cultures; FIG. 4A", "protocol": "as §2"}, "γδT cells [3]": {"test_system": "γδT cells", "assay": "IL-17 and TNF production by lymph node γδT cells with or without IL-7", "format": "cell-based, mice", "conditions": "all γδT subsets, IL-7 10 ng/ml 18 hours then PMA/ionomycin; FIG. 5", "protocol": "as §1\nas §2, with “For induction of human IL-22, tonsil lymphocytes were cultured in RF10 media at 1.5×10^6/ml in 24-well plates for 6 hours in the presence of 40 ng/ml IL-23 (eBiosciences) and 10 ng/ml IL-1β (R&D Systems). Golgi Stop™ (BD Biosciences) was added during the final 3 hours.” left out"}, "[4]": {"conditions": "iLN γδT cells and PP ILCs from Rorc(t)gfp/+ mice, IL-7 10 ng/ml, two days, vs untreated, FIG. 4G-K"}}, "data": [{"molecule": "C[C@H]1O[C@@H](O[C@H]2[C@@H](O)C[C@H](O[C@H]3[C@@H](O)C[C@H](O[C@H]4CC[C@@]5(C)[C@H](CC[C@@H]6[C@@H]5C[C@@H](O)[C@]5(C)[C@@H](C7=CC(=O)OC7)CC[C@]65O)C4)O[C@@H]3C)O[C@@H]2C)C[C@H](O)[C@@H]1O", "note": "[digoxin]", "values": [{"measurement": "BTLA expression at the mRNA level", "setting": "RORγt", "result": "induced expression of BTLA"}, {"measurement": "BTLA expression at the protein level (surface expression)", "setting": "RORγt", "result": "induced expression of BTLA"}]}, {"molecule": "IL-1β: cytokine, potent γδT cell activator", "values": [{"measurement": "BTLA induction in RORγt+ γδT cells after culture with activating cytokines", "setting": "[1]", "result": "either no or only a minimal effect"}]}, {"molecule": "B1", "values": [{"measurement": "viability of γδT cells within lymph node lymphocytes cultured ex vivo", "setting": "γδT cells [2]", "result": "sustained viability"}, {"measurement": "number of BTLA+ cells", "setting": "[1]; [4]", "result": "induced a higher number"}, {"measurement": "surface BTLA expression", "setting": "[1]; [4]", "result": "increased"}, {"measurement": "frequency of IL-17 expressing γδT cells", "setting": "γδT cells [3]", "result": "enhanced"}, {"measurement": "frequency of TNF expressing γδT cells", "setting": "γδT cells [3]", "result": "enhanced"}]}, {"molecule": "B2", "values": [{"measurement": "BTLA induction in RORγt+ γδT cells after culture with activating cytokines", "setting": "[1]", "result": "either no or only a minimal effect"}]}]}
